Earlier results on one substance are cited in publication PMC9357288.

This data set deals with Hck SH3 (Homo sapiens) (UniProt P08631).
UniProt P08631, sequence (P08631 75-141): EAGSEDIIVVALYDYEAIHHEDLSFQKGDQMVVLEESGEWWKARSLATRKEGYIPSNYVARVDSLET

Consider Nef (from UniProt P04324), for which the dissociation constant (Kd) is 250 nM.

What is called Kd is the equilibrium constant for the complex coming apart.
